# Reference: US20060134087A1, “ITI-D1 Kunitz domain mutants as hNE inhibitors” (Dyax Corp., priority 1988, published 2006)
# “Also recorded” adds a separate entry of the source. Read-outs that look alike come from different tables or passages of the source.
# How the values were obtained:
# [1] = target: T1, Elastase (porcine pancreas) (Sus scrofa, UniProt P00772); settings: BPTI P1 derivatives, cited from earlier work
# T1 construct: host or cells: porcine pancreas
# hCG = target: T2, hCG (Homo sapiens, UniProt P08311); settings: cited from earlier work
# T2 sequence (P08311 21-255): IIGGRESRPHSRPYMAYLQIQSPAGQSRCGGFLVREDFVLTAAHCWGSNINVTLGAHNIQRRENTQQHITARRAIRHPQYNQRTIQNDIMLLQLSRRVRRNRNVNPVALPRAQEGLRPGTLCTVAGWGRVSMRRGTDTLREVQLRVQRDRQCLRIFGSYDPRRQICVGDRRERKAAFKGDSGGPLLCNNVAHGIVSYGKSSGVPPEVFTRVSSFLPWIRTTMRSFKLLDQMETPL
# hNE [2] = target: T3, hNE (Homo sapiens, UniProt P08246); test: Kinetic on-rate of inhibitors reacting with hNE (progressive inhibition); type: biochemical; settings: for kon: [hNE] = 8.47 × 10^−10 molar; for koff: calculated from koff = KD × kon
# T3 sequence (P08246 30-267): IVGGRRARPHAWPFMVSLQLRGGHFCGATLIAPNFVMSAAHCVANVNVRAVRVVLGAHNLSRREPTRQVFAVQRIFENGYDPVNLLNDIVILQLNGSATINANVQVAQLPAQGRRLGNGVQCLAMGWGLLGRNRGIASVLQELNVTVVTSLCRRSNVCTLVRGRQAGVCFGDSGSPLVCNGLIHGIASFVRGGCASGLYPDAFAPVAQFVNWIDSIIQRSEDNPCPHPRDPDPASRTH
# Procedure: The kinetic on-rates for the inhibitors reacting with hNE (kon) were determined from measurements of progressive inhibition of substrate hydrolytic activity by hNE following addition of inhibitor. For these experiments, a known concentration of inhibitor was added to a solution of hNE (0.847 nM) and substrate (25 μM) in 2 ml of reaction buffer in a plastic fluorescence cuvette. The change in fluorescence was recorded continuously following addition of the inhibitor. […] The enzymatic rate at selected times following addition of the inhibitor was determined from the slope of the tangent to the fluorescence time course at that time.
# The kinetic constant kon for EPI-HNE-2 reacting with hNE was determined as follows. EPI-HNE-2 at 1.3 nM was added to buffer containing 0.867 nM hNE (I:E=1.5:1) at time 0. Measured percent residual activity was recorded as a function of time after addition of inhibitor. A least-squares fit program was used to obtain the value of kon=4.0×10^6 M^−1s^−1.
# The kinetic off rate, koff, is calculated from the measured values of Ki and kon as: […] The values from such measurements are included in Table 30. The EPI-HNE proteins are small, high affinity, fast acting inhibitors of hNE. B. Specificity.
# hNE [3] = target: T3, hNE; test: Resistance to oxidative inactivation by Chloramine-T, residual hNE-inhibition activity; type: physicochemical; settings: for Percent Residual hNE-Inhibitory Activity: 20 minutes at RT
# Procedure: At the end of the incubation period, the oxidation reactions were quenched by adding methionine to a final concentration of 4 mM. After a further 10 minute incubation, the quenched reactions were diluted and assayed for residual inhibitor activity in our standard hNE-inhibition assay.
# Inhibitors were incubated in the presence of Chloramine-T at the molar ratios indicated for 20 minutes at RT. Oxidation reactions were quenched by adding methionine to a final concentration of 4 mM. Residual hNE-inhibition activity remaining in the quenched reactions is shown as a percentage of the activity observed with no added oxidant.
# hNE [4] = target: T3, hNE; test: pH stability, residual hNE inhibitory activity; type: physicochemical; settings: 37° C., 18 hours; for pH stability: pH 1 to pH 10, 1 μM; for Percent Residual hNE Inhibitory Activity: 1 μM protein
# Procedure: The stability of the proteins to exposure to pH conditions in the range of pH 1 to pH 10 was assessed by maintaining the inhibitors in buffers of defined pH at 37° C. for 18 hours and determining the residual hNE inhibitory activity in the standard hNE-inhibition assay. Proteins were incubated at a concentration of 1 μM. The buffers shown in Table 4 were formulated as described (STOL90) and used in the pH ranges indicated: […]
# Proteins were incubated at 37° C. for 18 hours in buffers of defined pH (see text). In all cases protein concentrations were 1 μM. At the end of the incubation period, aliquots of the reactions were diluted and residual hNE-inhibition activity determined.
# hNE [5] = target: T3, hNE; test: Temperature stability, residual inhibitory activity for hNE; type: physicochemical; set-up: Residual hNE Inhibitory Activity: unit not given here; settings: for Residual hNE Inhibitory Activity: 18 hours, pH 7.0, 1 μM protein; for temperature below which full inhibitory activity is maintained: thirty minutes, 1 μM, phosphate buffer pH=7
# Procedure: The stability of EPI-HNE proteins to temperatures in the range 0° C. to 95° C. was assessed by incubating the inhibitors for thirty minutes at various temperatures and determining residual inhibitory activity for hNE. In these experiments, protein concentrations were 1 μM in phosphate buffer at pH=7. As is shown in Table 40, the four inhibitors are quite temperature stable.
# Proteins were incubated at the stated temperature for 18 hours in buffer at pH 7.0. In all cases protein concentrations were 1 μM. At the end of the incubation period, aliquots of the reactions were diluted and residual hNE-inhibition activity determined.
# [6] = target: T4, Trypsin (bovine pancreas) (Bos taurus, UniProt P00760); settings: BPTI P1 derivatives; read-out: Dissociation constant (symbol); cited from earlier work
# T4 construct: host or cells: bovine pancreas
# T4 sequence (P00760 24-246): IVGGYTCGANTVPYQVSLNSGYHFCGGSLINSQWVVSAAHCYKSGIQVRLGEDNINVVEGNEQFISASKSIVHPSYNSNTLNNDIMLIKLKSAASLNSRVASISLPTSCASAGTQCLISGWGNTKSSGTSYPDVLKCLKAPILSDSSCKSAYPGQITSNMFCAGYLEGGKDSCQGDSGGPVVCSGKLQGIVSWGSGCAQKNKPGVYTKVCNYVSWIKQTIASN
# [7] = target: T5, Chymotrypsin (bovine pancreas) (Bos taurus, UniProt P00766); settings: BPTI P1 derivatives; read-out: Dissociation constant (symbol); cited from earlier work
# T5 construct: host or cells: bovine pancreas
# [8] = target: T6, Elastase (human leukocytes) (Homo sapiens, UniProt P08246); settings: BPTI P1 derivatives; read-out: Dissociation constant; cited from earlier work
# T6 construct: host or cells: human leukocytes
# T6 sequence (P08246 30-267): T3 sequence (P08246 30-267)
# [9] = read-out: Dissociation constant
# T1 sequence (P00772 27-266): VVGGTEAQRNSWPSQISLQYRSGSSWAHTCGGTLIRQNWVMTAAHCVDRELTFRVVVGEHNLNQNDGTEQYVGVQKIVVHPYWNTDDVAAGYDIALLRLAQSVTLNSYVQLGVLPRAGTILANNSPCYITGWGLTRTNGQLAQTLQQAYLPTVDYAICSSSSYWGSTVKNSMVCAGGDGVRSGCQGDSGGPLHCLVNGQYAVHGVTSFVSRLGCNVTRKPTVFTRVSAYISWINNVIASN
kon (hNE [2]),koff (hNE [2]),Substance,Percent Residual hNE-Inhibitory Activity (hNE [3]; Molar Ratio CHL-T:Inhibitor 0) [%],pH stability (hNE [4]),Percent Residual hNE Inhibitory Activity (hNE [4]; Incubation pH 1.0) [%],Percent Residual hNE Inhibitory Activity (hNE [4]; Incubation pH 2.0) [%],Percent Residual hNE Inhibitory Activity (hNE [4]; Incubation pH 3.0) [%],Percent Residual hNE Inhibitory Activity (hNE [4]; Incubation pH 4.0) [%],Percent Residual hNE Inhibitory Activity (hNE [4]; Incubation pH 6.0) [%],Percent Residual hNE Inhibitory Activity (hNE [4]; Incubation pH 7.0) [%],Percent Residual hNE Inhibitory Activity (hNE [4]; Incubation pH 8.0) [%],Percent Residual hNE Inhibitory Activity (hNE [4]; Incubation pH 9.4) [%],Percent Residual hNE Inhibitory Activity (hNE [4]; Incubation pH 10.0) [%],Residual hNE Inhibitory Activity (hNE [5]; Temperature 0 ° C.),Residual hNE Inhibitory Activity (hNE [5]; Temperature 23 ° C.),Residual hNE Inhibitory Activity (hNE [5]; Temperature 37 ° C.),Residual hNE Inhibitory Activity (hNE [5]; Temperature 55 ° C.),Residual hNE Inhibitory Activity (hNE [5]; Temperature 85 ° C.),Residual hNE Inhibitory Activity (hNE [5]; Temperature 95 ° C.),temperature below which full inhibitory activity is maintained (hNE [5]),further results
–,–,Bovine pancreatic trypsin inhibitor [BPTI],–,–,–,–,–,–,–,–,–,–,–,–,–,–,–,–,–,–,"Kd ([1]; read-out: Dissociation constant (symbol)): > 3500 nM; inhibition of Cathepsin-G (hCG; SWAI88, ODOM90): lacks; binding of hCG (hCG): does not significantly bind hCG"
3.7 10^6/M/s,7.4 10^−6/s,"EPI-HNE-1: BPTI-derived Kunitz domain, SEQ ID NO 007; K15I, R17F, I18F, I19P, R39M, A40G, K41N, R42G",100,stable at all pH values tested,102,100,100,98,100,93,96,100,98,97,100,100,99,106,64,below 90 °C,Percent Residual hNE-Inhibitory Activity (hNE [3]; Molar Ratio CHL-T:Inhibitor 1.4): 98%; Percent Residual hNE-Inhibitory Activity (hNE [3]; Molar Ratio CHL-T:Inhibitor 1.9): 102%; Percent Residual hNE-Inhibitory Activity (hNE [3]; Molar Ratio CHL-T:Inhibitor 3.8): 94%; Percent Residual hNE-Inhibitory Activity (hNE [3]; Molar Ratio CHL-T:Inhibitor 9.5): 95%; Percent Residual hNE-Inhibitory Activity (hNE [3]; Molar Ratio CHL-T:Inhibitor 19.): 92%; Percent Residual hNE-Inhibitory Activity (hNE [3]; Molar Ratio CHL-T:Inhibitor .48): 102%; Percent Residual hNE-Inhibitory Activity (hNE [3]; Molar Ratio CHL-T:Inhibitor .95): 100%; Percent Residual hNE Inhibitory Activity (hNE [4]; Incubation pH 2.6): 101%; Percent Residual hNE Inhibitory Activity (hNE [4]; Incubation pH 5.0): 100%; Residual hNE Inhibitory Activity (hNE [5]; Temperature 45 ° C.): 103; Residual hNE Inhibitory Activity (hNE [5]; Temperature 65 ° C.): 94; Residual hNE Inhibitory Activity (hNE [5]; Temperature 75 ° C.): 100
10.6 10^6/M/s,49. 10^−6/s,EPI-HNE-4: EPI-HNE-3 with substitution A3E; SEQ ID NO 027 (EACNLPIVRGPCIAFFPRWAFDAVKGKCVLFPYGGCQGNGNKFYSEKECREYCGVP; Epi-HNE-4),100,"stable when incubated at low pH, but showed some loss of activity at high pH; also recorded: retains almost full activity to pH 8.5",98,100,96,94,99,93,83,40,34,100,103,98,98,63,48,below 65 °C,Percent Residual hNE-Inhibitory Activity (hNE [3]; Molar Ratio CHL-T:Inhibitor 1.0): 100%; Percent Residual hNE-Inhibitory Activity (hNE [3]; Molar Ratio CHL-T:Inhibitor 3.0): 100%; Percent Residual hNE-Inhibitory Activity (hNE [3]; Molar Ratio CHL-T:Inhibitor 5.0): 100%; Percent Residual hNE-Inhibitory Activity (hNE [3]; Molar Ratio CHL-T:Inhibitor 10.): 104%; Percent Residual hNE-Inhibitory Activity (hNE [3]; Molar Ratio CHL-T:Inhibitor 30.): 100%; Percent Residual hNE-Inhibitory Activity (hNE [3]; Molar Ratio CHL-T:Inhibitor 50.): 100%; Percent Residual hNE-Inhibitory Activity (hNE [3]; Molar Ratio CHL-T:Inhibitor .50): 100%; hNE-inhibition activity after exposure to Chloramine-T (hNE [3]; all molar ratios tested (up to 50:1 for EPI-HNE-3 and EPI-HNE-4)): retain essentially complete hNE-inhibition activity; Percent Residual hNE Inhibitory Activity (hNE [4]; Incubation pH 5.5): 109%; Percent Residual hNE Inhibitory Activity (hNE [4]; Incubation pH 6.5): 100%; Percent Residual hNE Inhibitory Activity (hNE [4]; Incubation pH 7.5): 109%; Percent Residual hNE Inhibitory Activity (hNE [4]; Incubation pH 8.5): 86%; Residual hNE Inhibitory Activity (hNE [5]; Temperature 69 ° C.): 82
–,–,alanine,–,–,–,–,–,–,–,–,–,–,–,–,–,–,–,–,–,–,"Kd [6]: ≥ 3500 nM; Kd [7]: > 3500 nM; Kd [1, 9]: 28 nM; Kd [8]: 2.5 nM"
–,–,valine,–,–,–,–,–,–,–,–,–,–,–,–,–,–,–,–,–,–,"Kd [6]: > 3500 nM; Kd [7]: > 3500 nM; Kd [1, 9]: 57 nM; Kd [8]: 0.11 nM"
